# Values quoted from earlier work as cited in patent publication US20200031943A1 (priority 2017, published 2020).
# Read-outs that look alike come from different tables or passages of the source.
# Settings: for percentage of patients reported as developing influenza / upper respiratory infections (percentage of patients): SLE patients; for percentage of patients reported as developing influenza: placebo 2.0%; for upper respiratory infections (percentage of patients): placebo 28.7%
# [1] = 300 mg intravenous every 4 weeks for 48 weeks
# [2] = 1,000 mg intravenous every 4 weeks for 48 weeks
substance,measurement,setting,value
anifrolumab,percentage of patients reported as developing influenza,[1],6.1%
same,upper respiratory infections (percentage of patients),[1],36.4%
same,incidence of serious adverse events,"300 mg or 1,000 mg intravenous every 4 weeks for 48 weeks vs placebo",did not increase the incidence of serious adverse events
same,percentage of patients reported as developing influenza,[2],7.6%
same,upper respiratory infections (percentage of patients),[2],41.9%
same,frequency of herpes zoster and influenza infections,anifrolumab-treatment group vs placebo,slightly more frequent
